The text below walks through data of patent US20210230248A1, “Multivalent pharmacophores for high avidity and overexpressed-target specific binding and uses thereof” (priority 2020, published 2021).

Entries after “also recorded” stand apart in the source; their conditions may differ. Where no end group is shown, it is not given here.

In test [1] the target is T1, uPAR overexpressing Hela cells (Homo sapiens, UniProt Q03405).
T1 construct: endogenous in cells; host or cells: Hela cells
Nature of the test: Competitive binding assay on uPAR overexpressing Hela cells. The following applies: ratio of IC50 values. The text has this:
This assay is to measure the binding avidity of multivalent PEG-GFD pharmacophores to uPAR overexpressing Hela cells in comparison to uPA. Hela cells express uPAR but not uPA (Rabbani et al., Neoplasia, 2010, 12(10); 778-88), and therefore competition from endogenous uPA can be excluded.
Mouse anti-uPAR (Clone VIM5) is an uPAR blocking antibody (Sillaber et al., J Biol Chem, 1997, 272(12):7824-32). The potency of multivalent PEG-GFD pharmacophores and native uPA to compete against the antibody in binding to the overexpressed uPAR on the surface of Hela cells is measured and compared in this assay.
Hela cells were detached from culture flasks by trypsin/EDTA, resuspended in complete culture medium in a 50 mL conical tube, and incubated for 1 h at 37° C. in 5% CO2 incubator to allow receptor recovery. PE-conjugated anti-uPAR antibody (Clone VIM5; Invitrogen) at the final concentration of 0.5 μg/100 μL (33.33 nM) was mixed with titrated concentrations of 4-arm PEG-GFD and 6-arm PEG-GFD, and recombinant human uPA (Biolegend) in Stain Buffer. The mixture was added into Hela cells (500,000 cells in 100 μL; final density). […] The fluorescent intensity of PE on Hela cells was quantified by flow cytometry and plotted against the titration of 4-arm PEG-GFD, 6-arm PEG-GFD and uPA. The binding avidity of multivalent PEG-GFD pharmacophores relative to native uPA can be calculated.

Test [2] concerns H1299, SW480, HT-1080 and PC3 cells. Nature of the test: Cell adhesion assay on vitronectin coated plate. It is filed as cell-based, human. The following applies: four uPAR overexpressing cell lines; 3 h; various concentrations. The method, then: For adhesion of cancer cells to vitronectin, 96-well plate was coated overnight with vitronectin (Thermo Fisher Scientific) at 5 μg/mL in PBS at 4° C., 50 μL/well. The wells without coating were used as negative controls. The plate was then blocked with 3% MSD Blocking Buffer for 2 h at room temperature. Four uPAR overexpressing human cancer lines were used for the assay: non-small cell lung cancer line H1299, colorectal cancer line SW480, fibrosarcoma line HT-1080 and prostate cancer line PC3. The cells were detached from culture flasks by trypsin/EDTA, resuspended in complete culture medium in a 50 mL conical tube, and incubated for 1 h at 37° C. in 5% CO2 incubator to allow receptor recovery. Cells were then washed with serum-free medium and resuspended in DMEM medium with 0.5% BSA. 50,000 cells in 100 μL were plated into each well with various concentrations of 4-arm and 6-arm PEG-GFD pharmacophores, and uPAR blocking antibody, VIM5. The plates were incubated at 37° C. in 5% CO2 incubator for 3 h, and washed 4 times with PBS with 0.5% BSA. The number of adherent cells in each well was quantified by CellTiter-Glo (Promega).

The subject of test [3] is H1299 and HT-1080 cells. The experiment in a line: Chemotaxis assay (fibronectin coated transwell). It is filed as cell-based, human. The following applies: 10% FBS chemoattractant, 16 h. The method, then:
Chemotaxis assay was performed using BD BioCoat 24-well transwell with 8 μm pore size filter which is coated with fibronectin (Corning). For the study, H1299 and HT-1080 cells were detached from culture flasks with trypsin/EDTA, and then the trypsin was deactivated by adding the complete medium. The cells were washed with serum-free medium twice and resuspended at the final density of 50,000 cells in 500 μL DMEM medium supplemented with 0.5% BSA. The cells were treated with multivalent pharmacophores and uPAR blocking antibody for 1 h at 37° C. in 5% CO2 incubator. 650 μL of DMEM with 10% FBS was used as chemoattractant and added into the lower chamber. Serum-free DMEM medium was used as a negative control, and no drug treatment well was considered as 100% migration. After placing the upper chamber into the lower chamber, 500 μL cell suspensions were added to the upper chamber. 4-arm PEG-GFD, 6-arm PEG-GFD and uPAR blocking antibody, VIM5, with various concentrations were added in both upper and lower chambers. The transwell was incubated at 37° C. in 5% CO2 incubator for 16 h. […] The number of cells migrated past the filter was quantify by reading the solution in plate reader after transferring into a white 96-well plates.

Test [4] deals with H1299 and HT-1080 cells. Nature of the test: Matrigel invasion assay. It is filed as cell-based, human. As to conditions: 10 nM, 24 h. The method, then: The migration of cells through Matrigel indicates the ability of the cells to digest the extracellular matrix during the process of migration. The Matrigel invasion assay is similar to the chemotaxis assay above except that the 8 μm pore size filter is coated with Matrigel. BD BioCoat Matrigel Invasion Chamber (Corning) was used for the assay with H1299 and HT-1080 cells. 4-arm PEG-GFD, 6-arm PEG-GFD and the blocking antibody VIM5 were used at the concentration of 10 nM. After 24 h treatment, the Matrigel along with the cells remaining on the upper surface of filter in the upper chamber was scraped off with a cotton swab. The migrated cells were measured with CellTiter-Glo as described above.

Test [5] concerns the target T2, HT-1080 cells in which the overexpressed uPAR is occupied by endogenous uPA (Homo sapiens, UniProt Q03405).
T2 construct: endogenous in cells; host or cells: HT-1080 cells
The experiment in a line: Displacement of endogenous uPA from uPAR on HT-1080 cells. It is filed as binding. As to conditions: various concentrations; 0.5-4 h on ice. The method, then:
Human fibrosarcoma cell HT-1080 overexpresses both uPA and uPAR and the uPAR is occupied by the endogenous uPA. […] As a control, the competitive potency of uPAR blocking antibody (Clone VIM5) was also tested.
HT-1080 cells were plated in 96-well plate at 30,000 cells/well in 100 μL DMEM medium supplemented with 10% FBS. After overnight incubation, the culture medium was removed and 4-arm PEG-GFD, 6-arm PEG-GFD and mouse anti-uPAR antibody (Clone VIM5, Invitrogen) with various concentrations in Stain Buffer were added into each well. The cells were incubated on ice for 0.5, 1, 2, 3 and 4 h. Then, the cells were washed twice with cold PBS and fixed in 4% paraformaldehyde for 30 min. The plate was blocked with 3% MSD Blocking Buffer for 1 h and the cells were stained with mouse anti-human uPA catalytic domain antibody (Clone 204212; R&D Systems) to quantify the amount of endogenous uPA still associated with the cells. After 2 h incubation with the antibody, HRP-conjugated anti-mouse antibody was added for another hour of incubation. TMB was then added and followed by addition of stop solution. The plate was read at 450 nm absorbance to quantify the endogenous uPA.

Test [6] deals with T3, PD-L1 overexpressing SU-DHL-1 cells (Homo sapiens, UniProt Q9NZQ7).
T3 construct: endogenous in cells; host or cells: SU-DHL-1 cells
Nature of the test: Competitive binding assay on PD-L1 overexpressing SU-DHL-1 cells. As to conditions: antibody at ~33.3 nM, assuming linear relationship. How it is done: PC3, a low PD-L1 expressing cell is used as a control.
PE-conjugated mouse anti-human PD-L1 antibody (Clone MIN1, eBioscience) at the final concentration of 0.5 μg/100 μL (˜33.3 nM) was mixed with 4-arm PEG-2K PD-1ecto or 6-arm PEG-3.4K PD-1ecto titrated from 50 nM to 1 nM in Stain Buffer. SU-DHL-1 cells (0.5×10^6 cells) were resuspended in each titration of reagent in a final volume of 100 μL per well. After incubation for 3 h on ice with occasional mixing, the cells were washed 3 times. The amount of anti-PD-L1 antibody bound to the cells was quantified by the fluorescence intensity of PE using flow cytometry.

Another test addresses CD47 (Homo sapiens, UniProt Q08722). As to conditions: Ho et al. 2015; read-out: Kd CD47/SIRPα; cited from earlier work.
The next test deals with T4, Human recombinant PD-L2 (Homo sapiens, UniProt Q9BQ51).
T4 construct: purchased Abcam
T4 sequence (Q9BQ51 20-273): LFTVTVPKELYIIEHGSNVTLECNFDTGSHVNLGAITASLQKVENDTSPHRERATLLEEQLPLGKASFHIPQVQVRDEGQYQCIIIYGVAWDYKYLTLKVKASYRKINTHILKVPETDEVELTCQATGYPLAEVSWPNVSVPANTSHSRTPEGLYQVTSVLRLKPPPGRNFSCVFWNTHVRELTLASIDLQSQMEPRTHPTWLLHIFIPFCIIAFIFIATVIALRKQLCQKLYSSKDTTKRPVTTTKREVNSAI
Nature of the test: Binding to PD-L2 coated MSD plate. As to conditions: test items at 5 nM; plate coated at 40 nM; FIG. 4B. How it is done: Human recombinant PD-L1, PD-L2 and CD80 (Abcam) at the concentration of 40 nM were coated onto wells of 96-well MSD plate (small spot, 40 μL/well) overnight at 4° C., and then blocked with 3% MSD Blocking Buffer for 1 h. […] The plates were shaken for another 1 h at room temperature. After washing, SULFO-TAG anti-mouse IgG antibody was added into the plates. The plates were further incubated for 1 h and then washed and read after adding 1×MSD Read Buffer. SULFO-TAG anti-human IgG antibody was added into the plate of PD-L1 Fc chimera proteins. The wells without coating were used as background binding.

T1 sequence (Q03405 23-335): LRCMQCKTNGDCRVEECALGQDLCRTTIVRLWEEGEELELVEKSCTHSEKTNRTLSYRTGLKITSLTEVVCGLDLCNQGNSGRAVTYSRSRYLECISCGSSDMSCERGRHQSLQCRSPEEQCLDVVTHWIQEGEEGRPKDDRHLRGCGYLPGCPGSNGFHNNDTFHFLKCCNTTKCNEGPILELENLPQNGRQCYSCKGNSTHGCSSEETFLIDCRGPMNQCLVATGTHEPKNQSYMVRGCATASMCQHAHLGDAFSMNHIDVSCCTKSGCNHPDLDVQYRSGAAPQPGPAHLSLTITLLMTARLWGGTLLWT
T2 sequence (Q03405 23-305 limits assumed): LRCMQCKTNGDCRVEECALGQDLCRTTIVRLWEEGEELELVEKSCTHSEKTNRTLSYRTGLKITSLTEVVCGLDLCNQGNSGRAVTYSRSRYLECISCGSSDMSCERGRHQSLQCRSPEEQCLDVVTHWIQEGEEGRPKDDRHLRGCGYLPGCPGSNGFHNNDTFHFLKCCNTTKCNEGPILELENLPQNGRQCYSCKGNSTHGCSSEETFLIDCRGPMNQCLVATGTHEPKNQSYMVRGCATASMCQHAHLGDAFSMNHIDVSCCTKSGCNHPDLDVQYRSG
CD47, sequence (Q08722 19-323): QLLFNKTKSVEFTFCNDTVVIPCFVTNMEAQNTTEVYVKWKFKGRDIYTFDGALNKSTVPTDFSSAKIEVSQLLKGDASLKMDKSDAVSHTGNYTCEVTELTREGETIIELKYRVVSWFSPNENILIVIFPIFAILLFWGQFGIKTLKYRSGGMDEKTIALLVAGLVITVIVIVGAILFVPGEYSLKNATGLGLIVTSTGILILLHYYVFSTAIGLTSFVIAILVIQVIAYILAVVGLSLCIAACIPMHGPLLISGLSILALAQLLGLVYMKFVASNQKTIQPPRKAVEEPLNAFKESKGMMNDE
T3 sequence (Q9NZQ7 19-290): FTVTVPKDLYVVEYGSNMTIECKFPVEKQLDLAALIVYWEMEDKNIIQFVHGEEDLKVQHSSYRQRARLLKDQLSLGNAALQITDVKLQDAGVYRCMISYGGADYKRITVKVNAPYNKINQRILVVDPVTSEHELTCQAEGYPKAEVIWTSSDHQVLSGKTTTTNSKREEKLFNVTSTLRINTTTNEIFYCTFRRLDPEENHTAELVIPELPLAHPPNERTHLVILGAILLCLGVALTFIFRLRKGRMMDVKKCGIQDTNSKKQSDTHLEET

Consider “4-arm PEG-GFD: growth factor-like domain of uPA (first 43 amino acids) conjugated to 4-arm PEG-2K (VPSNCDCLNGGTCVSNKYFSNIHWCNCPKKFGGQHCEIDKSKT; not fully specified (C-terminus); ends and bridges not checked; also: conjugated to 4-arm PEG-2K (site not given here))”, for which the “fold increase in binding activity relative to native uPA” value in test [1] was ~31 fold. In test [2], the “inhibition of adhesion to vitronectin” value is recorded as “inhibited the adhesion of all four cell lines to vitronectin dose-dependently”. In addition, the “migration of cells to the lower chamber (chemotaxis)” value in the test on H1299 and HT-1080 cells [3] is “significantly reduced migration”. Further, the Matrigel invasion result with H1299 and HT-1080 cells [4] was “significantly inhibited”.

As to “6-arm PEG-GFD: growth factor-like domain of uPA conjugated to 6-arm PEG-3.4K (VPSNCDCLNGGTCVSNKYFSNIHWCNCPKKFGGQHCEIDKSKT; not fully specified (C-terminus); ends and bridges not checked; also: conjugated to 6-arm PEG-3.4K (site not given here))”, in test [1], the “fold increase in binding activity relative to native uPA” value is recorded as ~85 fold. Besides, the “displacement of bound uPA from uPAR” value in test [5] is listed as “generally more potent than 4-arm PEG-GFD”. Moreover, the “inhibition of adhesion to vitronectin” value in test [2] is “inhibited the adhesion of all four cell lines to vitronectin dose-dependently; also recorded: more potent than 4-arm PEG-GFD”. Moreover, the “migration of cells to the lower chamber (chemotaxis)” value with H1299 and HT-1080 cells [3] is recorded as “significantly reduced migration”. The Matrigel invasion entry with H1299 and HT-1080 cells [4] was “significantly inhibited”.

Take “4-arm PEG-2K PD-1ecto: PD-1 ectodomain (aa. 21-169) site-specifically C-terminally conjugated to 4-arm PEG-2K, tetravalent pharmacophore”: in test [6], the “fold more potent than the PD-L1 blocking antibody” value is “about 2.6 fold”.

With “SIRPα: signal-regulatory protein alpha, binds CD47 through its N-terminal IgV-like domain”, in the test with CD47, the Kd was 300 to 500 nM.

Take “PD-1 Fc chimera: recombinant human PD-1 Fc chimera protein (R&D Systems) [reference compound]”: the “binding to PD-L2 coated plate” value with Human recombinant PD-L2 is on record as “bound”.
